Data on three molecules can be found in publication PMC5993284, “Peptide inhibitors of the anaphase promoting-complex that cause sensitivity to microtubule poison” (PLoS ONE, 2018).

The test system of one experiment is APC/C^Cdh1. Description: APC/C^Cdh1 enzyme assay (ubiquitination of 35S-Pds1). The class given is biochemical, Saccharomyces cerevisiae. Conditions: 220 μM peptide; 35S-Pds1 substrate; time course 0-60 minutes; vs buffer; n = 3. As to the method:
(§1) Full-length, radio-labeled protein purifications were preformed as previously described. ^35S-Pds1 was prepared in a 500 μL IVT/T (In Vitro Transcription/Translation) reaction (Promega, USA), which contained 400 μL rabbit reticulocyte lysate, 20 μL of L-^35S-methionine (PerkinElmer, USA), 10 μg of plasmid DNA, and the remaining volume as nuclease-free ddH2O as recommended by the manufacturer. The reaction mixture was incubated for 2 hours at room temperature and gently mixed every 30 minutes. The reaction was added to pre-equilibrated IgG Sepharose beads (GE Healthcare, USA) in Bio-spin disposable chromatography columns (Bio-Rad, USA) for binding for 2 hours at room temperature. To ensure efficient binding, the beads were re-suspended several times every 30 minutes. After binding, the beads were washed with 5 mL wash buffer, containing 200 mM 4-(2-hydroxyethyl)-1-piperazineethanesulfonic acid (HEPES) at pH 8.0, 150 mM NaCl, 10% (v/v) glycerol, and 1 mM dithiothreitol (DTT). The ^35S-Pds1 was cleaved from the beads using TEV (Tobacco Etch Virus) protease in 1x TEV buffer (Invitrogen, USA) for 2 hours at room temperature, and the mixture was re-suspended several times every 30 minutes to promote efficient cleavage. The elution was collected and concentrated by employing an Amicon Ultra filter column (Millipore, Ireland). The concentrated ^35S-Pds1 was collected in a new tube, and stored at -20 °C.
(§2) The production of Cdc20 or Cdh1 was prepared by IVT/T reactions, where 16 μL of rabbit reticulocyte lysate, 20 μM L-methionine, 0.4 μg of plasmid DNA, and a volume of nuclease-free ddH2O for a total volume of 20 μL. This freshly synthesized Cdc20 or Cdh1 protein was used directly in all APC/C assays after a 1-hour synthesis reaction at room temperature. The APC/C was purified for enzyme assays from 1 mL of TAP-tagged Cdc16 yeast extract (SCSY51) where extract was mixed with 50 μL 50:50 slurry magnetic beads (Invitrogen, Norway) for 2 hours at 4 °C. After incubation, the beads were washed with 3 mL APC/C wash buffer (200 mM of HEPES, 150 mM of NaCl and 10% (v/v) of glycerol). APC/C bound to IgG magnetic beads was used directly in the enzyme assays.
APC/C assays were performed by adding the reaction contents in following order: 4.3 μL of QAH buffer, 20 μL of rabbit reticulocyte lysate containing Cdc20 or Cdh1 with or without an additional volume of recombinant checkpoint protein(s) or inhibitor peptides, 2.4 μL ubiquitin aldehyde (Boston Biochem, USA), APC/C, 16 μL pre-charged E1/E2/ATP/ubiquitin mix, and 13.3 μL of ^35S-Pds1 with QAH buffer (20 mM HEPES at pH 8.0, 100 mM NaCl, and 1 mM MgCl2). […]

The target of another experiment is T1, APC/C^Cdc20 (Saccharomyces cerevisiae, UniProt P16522+P53886).
T1 construct: constructed within full-length Cdc20 by site-directed mutagenesis for analysis in vitro in the APC/C^Cdc20 assay; The APC/C was purified for enzyme assays from 1 mL of TAP-tagged Cdc16 yeast extract (SCSY51); made in house; host or cells: Cdc20: in vitro transcription/translation in rabbit reticulocyte lysate, used unpurified; APC/C: S. cerevisiae strain SCSY51 (Cdc16-TAP) extract, captured on IgG magnetic beads
Description: biochemical. The class given is biochemical. Conditions: 220 μM peptide; 35S-Pds1 substrate; time course 0-60 minutes; vs buffer only; n = 3. As to the method:
as §1, §2
(§3) APC/C assays were performed by adding the reaction contents in following order: 4.3 μL of QAH buffer, 20 μL of rabbit reticulocyte lysate containing Cdc20 or Cdh1 with or without an additional volume of recombinant checkpoint protein(s) or inhibitor peptides, 2.4 μL ubiquitin aldehyde (Boston Biochem, USA), APC/C, 16 μL pre-charged E1/E2/ATP/ubiquitin mix, and 13.3 μL of ^35S-Pds1 with QAH buffer (20 mM HEPES at pH 8.0, 100 mM NaCl, and 1 mM MgCl2). The E1/E2/ATP/ubiquitin mix were pre-charged by mixing 1 μL of E1 (Boston Biochem, USA), 1 μL of E2 (Boston Biochem, USA), 14.4 μL of ATP, 14.4 μL of […] (Boston Biochem, USA), and 17.2 μL of QAH buffer and incubated for 15 minutes at room temperature. Approximately 15 μL of samples were taken out at each time point, and the reaction was stopped by the addition of 2x protein sample buffer (125 mM Tris-HCl pH 6.8, 4% SDS, 20% glycerol, and 0.002% bromophenol blue, with 10% (final v/v) 2-mercaptoethanol added in fresh directly before use).
For inhibitor titration and time-course experiments, recombinant Bub3, Mad2, Mad3, and the Mad3-Bub3 complex were expressed and purified as previously described. […] For inhibition of APC/C the co-factor Cdc20 or Cdh1 was made fresh by IVT/T, and pure recombinant checkpoint proteins or inhibitor peptides were added to the IVT/T mixture and incubated for an additional hour at room temperature. In titrations, a dilution series of the checkpoint protein(s) were made before incubation with the Cdc20 co-factor. SDS-PAGE was performed using stand protocols (BioRad, USA).

A further experiment relates to APC/C. Description: APC/C activity promoted by mutant Cdc20 alleles (Pds1 remaining). The format is biochemical, Saccharomyces cerevisiae. As to the method:
as §2, §3
For APC/C activity assays dried-gels were exposed on a phosphor screen cassette to detect radio-labeled protein. The phosphor screen was scanned by a Typhoon phosphor-imager (GE Healthcare Bio-Sciences, USA), and radio-labeled protein bands in gels were quantified by employing the ImageQuant software (GE Healthcare Bio-Sciences, USA) according to the manufacturer’s protocols. Data were expressed as mean ± standard deviation, and was analyzed using Student’s t-test. Graphs were created using Kaliedograph 4.0 (Synergy Software, USA) and estimates of best-fit curves of a 4-parameter Hill equation were generated to obtain estimates for the median inhibitory concentrations (IC50) and Hill coefficients (Hc) using IgorPro 6.01 (Wavemetrics, USA).
By sequence alignment and amino acid homology alone, the budding yeast KILR-motif may be defined as 201-RILQ-204 (Fig 1A). However, the next residue, Tyrosine Y205 had previously been isolated in a genetic screen for spindle checkpoint by-pass alleles of Cdc20 [21], indicating this Y205 residue may be a target of the spindle checkpoint inhibition, and thus might also be a functional KILR-motif residue that contributes to APC/C activation. To clarify this possibility, we took the initial step to characterize several of the previously isolated spindle checkpoint by-pass mutant alleles of Cdc20 [21], and also Cdc20 mutants in the two highly conserved residues within the Mad2-binding motif, the aspartic acid at D197 of unknown function and the highly conserved Leucine L203 within the KILR-motif based on sequence alignment and homology. […]

“Also recorded” adds a separate entry of the source.

B1: C-box2: C-box2 (Cdc20 130–196) containing the region between the C-box and the Mad2-binding motif (peptide, UniProt P26309 130-196, looked up, fragment)
chain: TTSREVDEQFTVAADRYIPILQGASQNKVDPETLHEALPPPNASPISHLRAQTKIVFKQNVAEACGL
Consider B1, for which the “inhibition of APC/C^Cdh1 activity (in words)” value in the experiment with APC/C^Cdh1 is on record as “also inhibited APC/C^Cdh1 activity; also recorded: A significant level of APC/C^Cdh1 inhibition was observed”. The “inhibition of APC/C^Cdc20 activity (in words)” value in the experiment with APC/C^Cdc20 is given as “observed to inhibit APC/C^Cdc20 activity; also recorded: A significant level of APC/C^Cdc20 inhibition was observed only in the presence of the C-box2 peptide”.

B2: Cdc20-CB (I147A, P148A): control mutant with mutations in two residues within the C-box (protein, UniProt P26309 1-610, looked up, variant I147A P148A)
APC/C activator protein CDC20: MPESSRDKGNAAISGNRSVLSIASPTKLNILSSDWSRNQGKVSKNSLKRSSSLNIRNSKRPSLQASANSIYSRPKITIGAPPLIRRDSSFFKDEFDAKKDKATFSAYSSRSYPTIGSESVVSQTSLSQPTTSREVDEQFTVAADRYAAILQGASQNKVDPETLHEALPPPNASPISHLRAQTKIVFKQNVAEACGLDMNKRILQYMPEPPKCSSLRQKSYIMKKRTHYSYQQEQKIPDLIKLRKINTNPERILDAPGFQDDFYLNLLSWSKKNVLAIALDTALYLWNATTGDVSLLTDFENTTICSVTWSDDDCHISIGKEDGNTEIWDVETMSLIRTMRSGLGVRIGSLSWLDTLIATGSRSGEIQINDVRIKQHIVSTWAEHTGEVCGLSYKSDGLQLASGGNDNTVMIWDTRTSLPQFSKKTHTAAVKALSWCPYSPNILASGGGQTDKHIHFWNSITGARVGSINTGSQVSSLHWGQSHTSTNGGMMNKEIVATGGNPENAISVYNYETKFKVAEVVHAHEARICCSQLSPDGTTLATVGGDENLKFYKIFDPRCTGRSREDGLMDGMLGLIGKEGCRTNDKENRSKNSSEIHTRRPSSTSQYLIR
On to B2, for which the “ability of mutant Cdc20 to promote APC/C activity (in words)” value is “displayed decreased APC/C activity; also recorded: consistently displayed a decrease in APC activity” with APC/C (vs wild type Cdc20, n = 3) and “had no APC/C activity” with APC/C (vs wild type Cdc20, n = 3, listed as Cdc20-CB).

B3: Cdc20-L203A: mutant allele of Cdc20 in the conserved KILR-motif (protein, UniProt P26309 1-610, looked up, variant L203A)
APC/C activator protein CDC20: MPESSRDKGNAAISGNRSVLSIASPTKLNILSSDWSRNQGKVSKNSLKRSSSLNIRNSKRPSLQASANSIYSRPKITIGAPPLIRRDSSFFKDEFDAKKDKATFSAYSSRSYPTIGSESVVSQTSLSQPTTSREVDEQFTVAADRYIPILQGASQNKVDPETLHEALPPPNASPISHLRAQTKIVFKQNVAEACGLDMNKRIAQYMPEPPKCSSLRQKSYIMKKRTHYSYQQEQKIPDLIKLRKINTNPERILDAPGFQDDFYLNLLSWSKKNVLAIALDTALYLWNATTGDVSLLTDFENTTICSVTWSDDDCHISIGKEDGNTEIWDVETMSLIRTMRSGLGVRIGSLSWLDTLIATGSRSGEIQINDVRIKQHIVSTWAEHTGEVCGLSYKSDGLQLASGGNDNTVMIWDTRTSLPQFSKKTHTAAVKALSWCPYSPNILASGGGQTDKHIHFWNSITGARVGSINTGSQVSSLHWGQSHTSTNGGMMNKEIVATGGNPENAISVYNYETKFKVAEVVHAHEARICCSQLSPDGTTLATVGGDENLKFYKIFDPRCTGRSREDGLMDGMLGLIGKEGCRTNDKENRSKNSSEIHTRRPSSTSQYLIR
As to B3, in the experiment on APC/C (vs wild type Cdc20, n = 3), the “ability of mutant Cdc20 to promote APC/C activity (in words)” value is “displayed decreased APC/C activity; also recorded: had no APC/C activity; also recorded: consistently displayed a decrease in APC activity”.
